Laboratory results from publication PMC6420652.

Assays:
[1] = target: AZIN (Homo sapiens) (UniProt O14977); test: ultracentrifugation; details: cited from earlier work
[2] = target: antizyme-mRuby2 (antizyme with a C-terminal mRuby2 tag) (UniProt P54368); test: FRET titration; details: parent: est. 24; read off a plot
Chain of antizyme-mRuby2 (antizyme with a C-terminal mRuby2 tag) (P54368 whole entry): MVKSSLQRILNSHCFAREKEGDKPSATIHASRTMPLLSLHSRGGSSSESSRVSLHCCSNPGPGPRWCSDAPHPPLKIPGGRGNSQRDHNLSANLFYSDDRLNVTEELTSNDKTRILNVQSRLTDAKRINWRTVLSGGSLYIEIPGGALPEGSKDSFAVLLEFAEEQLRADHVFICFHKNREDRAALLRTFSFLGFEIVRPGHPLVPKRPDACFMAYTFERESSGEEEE

Chain of AZIN (Homo sapiens) (O14977 whole entry): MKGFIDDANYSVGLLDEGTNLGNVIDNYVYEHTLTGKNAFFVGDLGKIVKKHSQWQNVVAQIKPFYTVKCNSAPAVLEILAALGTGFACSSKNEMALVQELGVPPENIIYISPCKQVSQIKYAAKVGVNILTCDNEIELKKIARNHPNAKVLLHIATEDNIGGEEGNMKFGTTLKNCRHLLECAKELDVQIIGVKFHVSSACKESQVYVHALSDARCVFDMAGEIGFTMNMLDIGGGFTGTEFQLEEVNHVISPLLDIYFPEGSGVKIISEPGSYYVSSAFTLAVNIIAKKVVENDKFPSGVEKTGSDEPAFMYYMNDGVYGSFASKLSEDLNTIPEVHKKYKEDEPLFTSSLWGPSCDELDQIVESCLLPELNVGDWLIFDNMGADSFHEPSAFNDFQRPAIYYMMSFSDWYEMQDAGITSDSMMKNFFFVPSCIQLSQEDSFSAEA
Chain of Clover-AZIN (antizyme inhibitor with an N-terminal Clover tag) (O14977 whole entry, stated change not applied): as the sequence (O14977 whole entry) above
Chain of Antizyme (P54368 whole entry): as the sequence (P54368 whole entry) above

## Antizyme (from UniProt P54368)
[1]
  Kd: 20 nM

## Clover-AZIN (antizyme inhibitor with an N-terminal Clover tag) (from UniProt O14977) V137A
[2]
  Kd: 11 nM
